Measurements reported in patent US20090035818A1 (NATIONAL UNIVERSITY OF CORPORATION HIROSHIMA UNIVERSITY, published 2009).

T1: fetuin (type III, calf serum) (calf, UniProt P12763 19-359)
T1 sequence (looked up): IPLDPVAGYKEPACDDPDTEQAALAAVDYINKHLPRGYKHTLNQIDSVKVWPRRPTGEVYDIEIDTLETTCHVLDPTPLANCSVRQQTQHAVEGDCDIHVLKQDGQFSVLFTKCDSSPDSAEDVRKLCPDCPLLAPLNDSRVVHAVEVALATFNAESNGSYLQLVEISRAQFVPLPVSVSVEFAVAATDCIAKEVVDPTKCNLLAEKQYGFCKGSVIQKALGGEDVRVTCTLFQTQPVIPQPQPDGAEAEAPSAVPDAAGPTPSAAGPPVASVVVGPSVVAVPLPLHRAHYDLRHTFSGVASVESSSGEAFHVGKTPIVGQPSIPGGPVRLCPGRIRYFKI

T2: asialofetuin (calf, UniProt P12763 19-359, sugar chains desialylated)
T2 sequence (looked up): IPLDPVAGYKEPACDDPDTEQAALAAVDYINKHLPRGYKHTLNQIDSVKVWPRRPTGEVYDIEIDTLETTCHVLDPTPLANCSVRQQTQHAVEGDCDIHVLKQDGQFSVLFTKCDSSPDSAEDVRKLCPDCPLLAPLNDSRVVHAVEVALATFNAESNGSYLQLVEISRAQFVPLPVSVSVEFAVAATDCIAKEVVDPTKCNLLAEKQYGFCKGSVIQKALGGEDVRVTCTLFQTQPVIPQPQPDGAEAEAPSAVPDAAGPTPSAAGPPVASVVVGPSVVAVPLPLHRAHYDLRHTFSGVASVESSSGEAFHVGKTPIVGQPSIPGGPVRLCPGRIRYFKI


Experiments:
[1] = target: T3, chicken egg yolk antibody (chicken IgY antibody) (chicken); experiment: SPR (Biacore 2000), chicken IgY on CM5 chip, lectin as analyte
T3 construct: Purified from egg yolk with the Eggcellent Chicken IgY Purification Kit (Pierce)
Source text: Assessment was made as to affinity of the different types of lectins and chicken egg yolk antibody (chicken IgY antibody). Briefly, using Biacore 2000 (BIACORE) that employs the principle of surface plasmon resonance method (hereinafter, “SPR method”), chicken egg yolk antibodies (chicken IgY antibodies) were immobilized as ligands on a sensor chip, and measurements were made according to manuals using each type of lectin solution as an analyte. The SPR technique allows for measurement of specific interactions between biomolecules both quickly and quantitatively, without labeling the biomolecules. According to this technique, the ligands are immobilized on a surface of the sensor chip, which is then supplemented with a solution of substance (analyte) that acts on the ligand. Slight changes in mass caused by the binding and dissociation of the molecules are then detected as changes in SPR signals. The mass change is represented by resonance unit (RU). One thousand RU is equivalent to a change in reflection angle of 0.1° caused by resonance, and it means that the analyte has bound to the ligand at 1 ng/mm². The surface of the sensor chip is coated with dextran, and the ligands are immobilized primarily via carboxyl groups that have been introduced into the dextran.
Affinity between each glycoprotein and each lectin was analyzed by SPR technique. Prior to analysis, preliminary analyses were made to assess analysis methods. […] An analysis program was created using “Customized Application” according to the manual, and a subtraction function was used in which subtraction was made from flow cells that had glycoproteins immobilized thereon, from among four flow cells in the sensor chip. […] Under this analysis program, each analyte (lectin) solution was flown on the sensor chip at a flow rate of 30 μl/min for 3 minutes, and buffer was flown for 3 minutes to measure the amount of lectin that had bonded/dissociated.

asialomucin = asialomucin (bovine); experiment: cell-based or functional assay
[2] = target: mucin (bovine submaxillary gland) (bovine); experiment: cell-based or functional assay
asialotransferrin = asialotransferrin (human, UniProt P02787 20-698, sugar chains desialylated by dilute acid treatment; only complex-type sugar chain); experiment: cell-based or functional assay
Chain of asialotransferrin (P02787 20-698 limits assumed): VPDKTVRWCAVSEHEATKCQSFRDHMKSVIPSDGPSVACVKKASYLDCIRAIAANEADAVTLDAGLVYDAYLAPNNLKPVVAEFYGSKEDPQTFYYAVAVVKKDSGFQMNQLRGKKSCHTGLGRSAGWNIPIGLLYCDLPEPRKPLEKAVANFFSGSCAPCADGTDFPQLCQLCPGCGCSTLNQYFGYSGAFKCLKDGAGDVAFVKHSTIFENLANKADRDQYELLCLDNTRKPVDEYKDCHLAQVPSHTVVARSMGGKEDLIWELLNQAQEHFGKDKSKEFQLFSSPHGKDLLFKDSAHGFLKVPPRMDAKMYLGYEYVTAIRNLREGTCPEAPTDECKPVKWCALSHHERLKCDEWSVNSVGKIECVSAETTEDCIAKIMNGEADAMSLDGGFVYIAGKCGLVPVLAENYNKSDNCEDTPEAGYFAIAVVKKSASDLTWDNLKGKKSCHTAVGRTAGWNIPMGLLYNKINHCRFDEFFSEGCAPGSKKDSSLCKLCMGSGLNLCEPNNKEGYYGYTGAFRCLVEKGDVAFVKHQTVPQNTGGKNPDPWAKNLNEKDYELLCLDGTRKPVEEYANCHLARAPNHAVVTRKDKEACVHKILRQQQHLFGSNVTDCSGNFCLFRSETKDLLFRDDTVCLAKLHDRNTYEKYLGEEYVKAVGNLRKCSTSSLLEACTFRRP

[3] = target: T1, fetuin (type III, calf serum); experiment: cell-based or functional assay
asialofetuin = target: T2, asialofetuin; experiment: cell-based or functional assay
transferrin (human) = transferrin (human) (human, UniProt P02787 20-698); experiment: cell-based or functional assay
Chain of transferrin (human) (P02787 20-698 limits assumed): as above

Binder	Ka [1]	Kd [1]	koff [1]	kon [1]	Minimum inhibitory concentration (hemagglutination inhibition, trypsin-treated rabbit erythrocytes) (asialomucin)	Minimum inhibitory concentration (hemagglutination inhibition, trypsin-treated rabbit erythrocytes) [2]	Minimum inhibitory concentration (hemagglutination inhibition, trypsin-treated rabbit erythrocytes) (asialotransferrin)	Minimum inhibitory concentration (hemagglutination inhibition, trypsin-treated rabbit erythrocytes) [3]	Minimum inhibitory concentration (hemagglutination inhibition, trypsin-treated rabbit erythrocytes) (asialofetuin)	Minimum inhibitory concentration (hemagglutination inhibition, trypsin-treated rabbit erythrocytes) (transferrin (human))
Eucheuma serra-derived lectin ESA-2 (other) GRYTVQNQWGGSSAPWNDAGLWILGSRGNQNVMAVDVNSSDGGANLNGTMTYSGEGPIGFKGARRGESNVYDVENQWGGSSAPWHAGGQFVIGSRSGQGVLAVNITSSDGGKTLTGTMTYEREGPIGFKGTQSGGDTYNVENQWGGSSAPWNKAGIWALGDRSGQAMIAMDVSSSDGGKTLEGTMQYKGEGPIGFRGKLSGANNYSVENQWGGSSAPWNAAGDWLIGDRHNQNITAVKVSSDNDGKNLDGTCTYEREGPIGFKGVATS	7.73e+07 M⁻¹	12.9 nM	0.00455 s⁻¹	352000 M⁻¹ s⁻¹	–	–	–	–	–	–
BML-17 (other, also called polypeptide isolated from Bryopsis maxima; BML-17 column (immobilised form)) VIYQDPVTSDMFAKIPMPGHRGPWYVCHSSGDWSRNEPVFGRCAIDAKGMVEAYFPYGGKDIKWPSRWSAVITTGVYWGKYNDWKQADCNGGQQVVDGGRGAVTVRMDGISECKGWTTGKSSHNEVWFGCNGKEVGSWISDTPASDVFPICQEYGAAVKIVHMGRAFN	8.36e+07 M⁻¹	12 nM	0.00586 s⁻¹	490000 M⁻¹ s⁻¹	250 µg/mL	250 µg/mL	1000 µg/mL	1000 µg/mL	500 µg/mL	2000 µg/mL
